The target in the first assay is HLA-A*03:01 (Homo sapiens, UniProt P04439). Kind of assay: MHC binding assay (UV-ligand exchange, beta2m ELISA). As to conditions: peptide exchange yield. Summed up:
(§1)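 Peptide–MHC complexes formed by UV-induced exchange of a UV-cleavable peptide for the test peptide. Exchange yield measured by streptavidin-capture ELISA detecting β2m (HRP anti-β2m, TMB, A450) on 100-fold diluted samples. Quantified against refolded HLA-A*02:01/MLA-001 standards (15-500 ng/ml).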
A general note: ELISA stands for enzyme-linked immunosorbent assay.
As for “24 (SMYYPLQLK; listed as Homo sapiens) [compound 24]”, the Peptide exchange result is given as “+++ (>50 = +++)”.
Same read-out and setting: under “274 (KTFPASTVF; listed as Homo sapiens) [compound 274]” stands “+ (>10% = +)”; under “265 (QIHDHVNPK; listed as Homo sapiens) [compound 265]”, “++ (>20% = ++)”; under “272 (RQPERTILRPR; listed as Homo sapiens) [compound 272]”, “++ (>20% = ++)”.
Same read-out and setting: the entry for “101 (RVFTSSIKTK; listed as Homo sapiens) [compound 101]” is “++ (>20% = ++)”.
Take “275 (STTFPTLTK; listed as Homo sapiens) [compound 275]”: the Peptide exchange entry is listed as “++ (>20% = ++)”.
The same measure, in the same setting: under “30 (ALEVAHRLK; listed as Homo sapiens) [compound 30]” stands “++ (>20% = ++)”; under “109 (KTFTIKRFLAK; listed as Homo sapiens) [compound 109]”, “++ (>20% = ++)”; under “86 (VVLLGSLFSRK; listed as Homo sapiens) [compound 86]”, “++ (>20% = ++)”.
Still for that read-out and setting: under “257 (VTADHSHVF; listed as Homo sapiens) [compound 257]” stands “+ (>10% = +)”; under “270 (AVFNPRFYRTY; listed as Homo sapiens) [compound 270]”, “++ (>20% = ++)”.
Take “261 (HTFGLFYQR; listed as Homo sapiens) [compound 261]”: the Peptide exchange entry is listed as “++ (>20% = ++)”.
Still for that read-out and setting: under “105 (RLFSWLVNR; listed as Homo sapiens) [compound 105]” stands “+++ (>50 = +++)”.
Turning to “263 (SSSSATISK; listed as Homo sapiens) [compound 263]”, the Peptide exchange entry is on record as “++ (>20% = ++)”.
For the substance “91 (RSLRYYYEK; listed as Homo sapiens) [compound 91]”, the Peptide exchange result is recorded as “++ (>20% = ++)”.
Still for that read-out and setting: under “286 (TVAPPQGVVK; listed as Homo sapiens) [compound 286]” stands “++ (>20% = ++)”; under “110 (SAAPPSYFR; listed as Homo sapiens) [compound 110]”, “++ (>20% = ++)”; under “93 (KILEEHTNK; listed as Homo sapiens) [compound 93]”, “++ (>20% = ++)”.
For the substance “88 (VVHAVFALK; listed as Homo sapiens) [compound 88]”, the Peptide exchange entry is “+++ (>50 = +++)”.

In a further assay the target is HLA-B*44:02 (Homo sapiens, UniProt P01889, A223V/A65T/A93T/A95T/D201E/D98Y/E176V/E187L/E204Q/E69K/G107R/H137Y/K202T/L105A/L119I/N104T/N87E/Q56L/Q94N/R106L/R155S/R180D/S101N/S121R/S35A/S48T/T118I/V36M/W191S/Y140D/Y91S). Described as above. The settings on record: peptide exchange yield. Summed up: as §1
On to “191 (EEDAALFKAW; listed as Homo sapiens) [compound 191]”, for which the Peptide exchange result is listed as ““+++” (>50 = +++)”.
Still for that read-out and setting: under “422 (SETTFSLIF; listed as Homo sapiens) [compound 422]” stands ““+++” (>50 = +++)”; under “425 (SEVPLPMAI; listed as Homo sapiens) [compound 425]”, ““+++” (>50 = +++)”.
As for “174 (AEATARLNVF; listed as Homo sapiens) [compound 174]”, the Peptide exchange entry is given as ““++++” (>75% = ++++)”.
Turning to “205 (SEITRIEM; listed as Homo sapiens) [compound 205]”, the Peptide exchange entry is listed as ““++” (>20% = ++)”.
The same measure, in the same setting: under “59 (SENVTMKVV; listed as Homo sapiens) [compound 59]” stands ““+++” (>50 = +++)”.
Take “190 (YEVARILNL; listed as Homo sapiens) [compound 190]”: the Peptide exchange result is on record as ““++” (>20% = ++)”.
For “403 (EEAQWVRKY; listed as Homo sapiens) [compound 403]”, the Peptide exchange entry is on record as ““++” (>20% = ++)”.
In the case of “438 (SEVDSPNVL; listed as Homo sapiens) [compound 438]”, the Peptide exchange entry is on record as ““+++” (>50 = +++)”.
As to “199 (REIDESLIFY; listed as Homo sapiens) [compound 199]”, the Peptide exchange result is listed as ““+++” (>50 = +++)”.
Still for that read-out and setting: the entry for “412 (QEILTQVKQ; listed as Homo sapiens) [compound 412]” is ““++” (>20% = ++)”; for “181 (GEGPKTSW; listed as Homo sapiens) [compound 181]” it is ““++” (>20% = ++)”.
Turning to “213 (KESIPRWYY; listed as Homo sapiens) [compound 213]”, the Peptide exchange result was ““++” (>20% = ++)”.
The same measure, in the same setting: the entry for “204 (RETSTSEETSL; listed as Homo sapiens) [compound 204]” is ““+++” (>50 = +++)”; for “413 (IEALSGKIEL; listed as Homo sapiens) [compound 413]” it is ““++” (>20% = ++)”.
On the same count and under the same terms, the entry for “57 (QESDLRLFL; listed as Homo sapiens) [compound 57]” is ““+++” (>50 = +++)”.
The same measure, in the same setting: the entry for “431 (AEQDPDELNKA; listed as Homo sapiens) [compound 431]” is ““++” (>20% = ++)”.
Consider “207 (TEARATSDSW; listed as Homo sapiens) [compound 207]”, for which the Peptide exchange entry is given as ““+++” (>50 = +++)”.
On to “212 (MEQKQLQKRF; listed as Homo sapiens) [compound 212]”, for which the Peptide exchange entry is recorded as ““+++” (>50 = +++)”.
The same measure, in the same setting: the entry for “215 (SEDGLPEGIHL; listed as Homo sapiens) [compound 215]” is ““++” (>20% = ++)”.
The same measure, in the same setting: the entry for “397 (REGDTVQLL; listed as Homo sapiens) [compound 397]” is ““++” (>20% = ++)”; for “435 (REEFVSIDHL; listed as Homo sapiens) [compound 435]” it is ““++” (>20% = ++)”.
On the same count and under the same terms, the entry for “200 (AESIPTVSF; listed as Homo sapiens) [compound 200]” is ““+++” (>50 = +++)”; for “53 (MEHPGKLLF; listed as Homo sapiens) [compound 53]” it is ““+++” (>50 = +++)”; for “426 (PEKTTHSF; listed as Homo sapiens) [compound 426]” it is ““+” (>10% = +)”.
“198 (QEAARAAL; listed as Homo sapiens) [compound 198]”: the Peptide exchange entry was ““++” (>20% = ++)”.
The same measure, in the same setting: the entry for “427 (HESSSHHDL; listed as Homo sapiens) [compound 427]” is ““++” (>20% = ++)”; for “182 (KEATEAQSL; listed as Homo sapiens) [compound 182]” it is ““+++” (>50 = +++)”; for “436 (REPGDIFSEL; listed as Homo sapiens) [compound 436]” it is ““++” (>20% = ++)”.
On the same count and under the same terms, the entry for “180 (REAGDEFELRY; listed as Homo sapiens) [compound 180]” is ““++” (>20% = ++)”; for “197 (AEVLLPRLV; listed as Homo sapiens) [compound 197]” it is ““+++” (>50 = +++)”.
The same measure, in the same setting: the entry for “202 (HESEATASW; listed as Homo sapiens) [compound 202]” is ““+++” (>50 = +++)”.
On to “187 (GEAQTRIAW; listed as Homo sapiens) [compound 187]”, for which the Peptide exchange entry is given as ““+++” (>50 = +++)”.
Turning to “173 (AEAQVGDERDY; listed as Homo sapiens) [compound 173]”, the Peptide exchange result was ““+++” (>50 = +++)”.
On to “192 (YEFKFPNRL; listed as Homo sapiens) [compound 192]”, for which the Peptide exchange result is recorded as ““+++” (>50 = +++)”.
